Experimental data taken from the supplement of paper PMC9170038.

Columns and labels:
[1] = tested on: MS2 coat protein; assay: apparent KD of MS2 coat protein, switch ON state; designed switch direction (-1 OFF switch, 1 ON switch): 1; higher = weaker reporter binding; details: FMN input: 0 or 200 uM; Eterna round: R93 (includes R88 designs)
In short: (§1)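 For every design, apparent KD is the median of normalised binding-curve fits from its clusters. The RNA switches were transcribed on-chip from Illumina sequencing clusters and titrated with SNAP-549-labelled MS2 coat protein (twofold steps, 0.7 or 1.5 nM to 3 µM; 0.8–1.5 h to 10–20 min per step). Titrations used 100 mM Tris-HCl pH 7.5, 80 mM KCl, 4 mM MgCl2, without or with constant ligand.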

[2] = tested on: MS2 coat protein; assay: apparent KD of MS2 coat protein, switch OFF state (with FMN for OFF switches, without FMN for ON switches); designed switch direction (-1 OFF switch, 1 ON switch): 1; higher = weaker reporter binding; details: FMN input: 0 or 200 uM; Eterna round: R93 (includes R88 designs)
In short: as §1

Sequence	apparent KD of MS2 coat protein [1] [nM]	apparent KD of MS2 coat protein [2] [nM]
GUCCAACAUGAGGAUCACCCAUGUGCAUGACACCGAGGAUAUGGGACUAAAGGUGCUGGACCAGAAGGCGGAAGAA [Laceus]	27.1	45.8
AGAAAUAAAACACAGGAUAUCCAAAAGAAAACAUGAGGAUCACCCAUGUAAAAUAAAAUAAAAUGGGAGAAGGGUGAAAAUAAGA [Mat - Same State 2 - JL mod - D5]	150	50.2
AAAAACAUGGUGCAGGAUAUAUUAAUAGUCACAUGAGGAUCACCCAUGUUCAUUUAUAUGAACGAGUAGAAGGGCGAUGAAAAAA [Mat - Same state - Malcolm Mod - D111]	247	410
GUGGUACAUGAGGAUCACCCAUGUGUGGGAGCAUGAGGAUAUGUCAGUCCAUGAAAUACGAUAGAAGGCAUGGUGA [JR_SS001_Sub1712]	234	264
GAAGACAUAGUUCAGGAUAUGGGAAUAGUCACAUGAGGAUCACCCAUGUGCAUUUAUAUGCGCGCUCAGAAGGGAGGUAGAUAUA [SameState2 Malc#19]	21	33.5
GGAAAACAUGAGGAUCACCCAUGUAGAAAUAUGGGAGGAUAUACAAAGACGAAAGUCAAAGUAGAAGGCCUAAAAG [salish99-SS1-084]	33.9	60.2
AUAAGACAUGAGGAUCACCCAUGUAUAAGAGCAUGAGGAUAUAUAAAAAGAAAAAGGAGAAUAGAAGGCAUAGUUG [JR_SS001_Sub1221]	84.1	107
ACAAUACAUGAGGAUCACCCAUGUUAGCUGGGCGAAGGAUAUGUAGAUGGAUAAAAAUAUGCAGAAGGUCGAUAAC [JR_SS001_Sub209]	68.7	109
AAAACACAUGAGGAUCACCCAUGUAGAAAUAUGGGAGGAUAUACGAAAACGAAAGACAAAGUAGAAGGCCUAAAAG [saturn 4]	41.6	153
AUAACAACGUAUGAGGAUAUCCAUAAUAAAACAUGAGGAUCACCCAUGUGAAUAAAAUAACAAUGGGAGAAGGCAUACGUACAAU [SS 2 M 51]	12.1	16
AGAAAUAAAAGGCAGGAUAUCCAAAAAAAAACAUGAGGAUCACCCAUGUAAAAAAAAAAAAAAUGGGAGAAGGGCCAAAUAAAGA [Mat - Same State 2 - Eli mod - D88]	16	37.5
AUAAAAUAAAUUGAGGAUAUCUAUAAUAAAACAUGAGGAUCACCCAUGUUUAAACAAAGAUCAUGGGAGAAGGCAGAAAAUAAAU [SS2 M 37]	12.5	20.6
AUAAAACAUGAGGAUCACCCAUGUAGAAAUAUGGGAGGAUAUACAAAGACGAAAGUCGAGGUAGAAGGCCUAAAAG [Mat - Same State 1 - Meechl mod - D121]	21.3	97.9
UAAAAACAUGAGGAUCACCCAUGUAGAAAUAUGGGAGGAUAUACAAAGACGAAAGUCAAAGUAGAAGGCCUAAAAU [Mat - Same State 1 - Eli mod - 32]	16.5	62.2
GAAAAACAUGAGGAUCACCCAUGUCAAUAUAUGGGAGGAUAUACAAAGACGAAAGUCAAAGUAGAAGGCCUAAAAG	18.3	66.4
AAAAAACAUGAGGAUCACCCAUGUAGAAACAUGGGAGGAUAUACAAAGACGAAAGUCAAAGUAGAAGGCCUAAAGA [Mat - Same State 1 - Mod - D162]	162	182
AAAAAAAAAUCACAGGAUAUACAAAAAAAAACAUGAGGAUCACCCAUGUAAAAAAAAAAAAAAAAGUAGAAGGGUGAUCCAAAAAA	12.1	9.28
AAAAAACAAAGAGAGGAUAUCCAAAAAAAAACAUGAGGAUCACCCAUGUAAAGAAAUUUAAAAUGGGAGAAGGCUCUUUGAAAAA [Same State 2.6b ( Helter Skelter 1)]	33.4	30.9
AGAAAUAAAAAUGAGGAUAUGCAAAAGAAAACAUGAGGAUCACCCAUGUAAAAGAAAAUAAAUGGGCAGAAGGCAUGAAAUAAAGA [Helter Skelter 3]	33.8	75.1

Sequence	apparent KD of MS2 coat protein [1] [nM]	apparent KD of MS2 coat protein [2] [nM]
GCCUAACAUGAGGAUCACCCAUGUAGUGGGUUGUUAGGAUAUGGGCCGCAUUACGCUGCACCAGAAGGAAUAGAAG [Rasoraer]	319	475
AAAACACAUGAGGAUCACCCAUGUAGAAAUACGGGAGGAUAUACGAAAACGAAAGACAAAGUAGAAGGCCUAAAAG [saturn 7]	38.7	53
GAAAAACAUGAGGAUCACCCAUGUGAAAAUAUGGGAGGAUAUACGAAGACGAAAGUCAAAGUAGAAGGCCUAAAAG [Garnet 31]	23.8	87.9
AAAAUAAAAUAAAAGGAUAUAAAAUAAAAAACAUGAGGAUCACCCAUGUGAAAACAUGAAAAAAAAAAGAAGGAAAAAUAAAAAA [SS2: 76 No MS2]	21.3	31.6
CAGGGACAUGAGGAUCACCCAUGUGGGAUUAUGGGAGGAUAUACAAAGACGAGAGUCAGAGUAGAAGGCCUAGGAC [salish99-ss1-128]	37.3	85.7
AGAAAACAUGAGGAUCACCCAUGUGAUAACAUGGGAGGAUAUACGAGGACGAUAGUCAAGGUAGAAGGCCUAAAGA [Garnet 71]	97.3	32.1
AAGAAACAUGAGGAUCACCCAUGUAGAAAUAUGGGAGGAUAUACAAAGACGAAAGUCAAAGUAGAAGGCCUAAGAA [Mat - Same State 1 - Meechl mod - D129]	16.6	63.2
AACAAUCUAUCUGAGGAUAUCAUGAAAAAAACAUGAGGAUCACCCAUGUGCAGGAAAACUGCAUAUGAGAAGGCAGAUAGAUUGA [SS2: 1101]	21.6	913
GGGAAGAAGAGAGAGGAUAUCCAAAGGAAAACAUGAGGAUCACCCAUGUAAAAGGAAGGAAAUUGGGAGAAGGCUCAAAAGAGGA [salish99-ss2-025]	21.6	51.6
CUGGACAUAGUACAGGAUAUAUGAAUAGUCACAUGAGGAUCACCCAUGUCCAUUUAUAUGGGCACAUAGAAGGGUGGUAGUUAAG [Mat - Same state - Malcolm Mod - D139]	4.52	41.2
AUAUAUAUAAGGUAGGAUAUACUAAAGUAAACAUGAGGAUCACCCAUGUAAAGAAAGAAACUCAUGUAGAAGGACCAUAUAUAUA [Original: 77%, More Tesla, 1]	21.3	99.9
GACUGACAUGAGGAUCACCCAUGUAUUCAAACAUGAGGAUAUAUGACACGUCAUCGACGGAUAGAAGGCAUAGAUG [JR_SS001_Sub1210]	163	205
GAUAAACAUGAGGAUCACCCAUGUAGAUAUAUGGGAGGAUAUACAAAGACGAUAGUCAAAGUAGAAGGCCUAAAAG [77%, Mat - Mod of Eli - With 3 more U's]	28.6	79.2
AAUAAAAAUAGUCAGGAUAUGAGAACUAAGACAUGAGGAUCACCCAUGUAAACAGAACAAGUAAAUCAGAAGGGACAGGGUGAAA [JR_SS002_Sub201]	39.3	30.2
CGGAAGGAGAGAGAGGAUAUCCAAAGGAAAACAUGAGGAUCACCCAUGUAGAAGGUAGGAAAUUGGGAGAAGGCUCAAGAGAGAG [salish99-ss2-119(!)]	37.4	51.4
AAGAAACAUGAGGAUCACCCAUGUAAUAAUAUGGGAGGAUAUACAAGGACGUAAGUCAAGGUAGAAGGCCUAAGAA [Mat - Same State 1 - Meechl mod - D141]	21	137
AUAAUAAACUGUGAGGAUAUCCAUAAUAAAACAUGAGGAUCACCCAUGUGUAGAUAAUAAUAAUGGGAGAAGGCACAUAAUAAUA [Mat - Same state - Mayanna Mod - D102]	19.6	26.2
AAAAAAAAACGUGAGGAUAUGUGAAAAUUAACAUGAGGAUCACCCAUGUGAUAAAAAAAAAAAAAACAGAAGGUACAAAAAAAAAA [Same 2 again I have no idea]	21.2	28.4
AACUAACAUGAGGAUCACCCAUGUUACAGCAGUUGAGGAUAUGUGGGUGAAAAUAGCAUGGCAGAAGGCGAGUGUA [SameState1 Malc#24]	53.9	127
